Data on two proteins can be found in PMC9254107, “The Toxoplasma glucan phosphatase TgLaforin utilizes a distinct functional mechanism that can be exploited by therapeutic inhibitors” (The Journal of Biological Chemistry, 2022).

Substrate in the series: O=[N+]([O-])c1ccc(OP(=O)(O)O)cc1
Kind of series: purified protein, by the assay type.

B1: VHR (Vaccinia H1-related phosphatase) (Homo sapiens) (protein)
chain: MSGSFELSVQDLNDLLSDGSGCYSLPSQPCNEVTPRIYVGNASVAQDIPKLQKLGITHVLNAAEGRSFMHVNTNANFYKDSGITYLGIKANDTQEFNLSAYFERAADFIDQALAQKNGRVLVHCREGYSRSPTLVIAYLMMRQKMDVKSALSIVRQNREIGPNDGFLAQLCQLNDRLAKEGKLKP
A word on the Km: it is the substrate concentration at which the rate is half of its maximum. B1: for the setting “pH 5.5, 37.0 °C”, the Km came out at 2500 ± 100 µM.

B2: TgLaforin (Toxoplasma gondii ME49) (protein)
chain: MRVRFSVTAFVPPNAQLGVVGSAPFLGEWKLEHCVPLMPYSAPHPQGLEPSLWFRDIDLDPASCPNDTNDVHSTAAVSASCSADRRRCDLSRQSPHCFPSARSASPYMVEVSRGDCPFAVELMSTSQHVLSEFSKHNSPVYSAGEQRFRRSLPSSASFSSCTSSGSAVAATKCVWDAAAYRVATRAPEVQAVLESHPLRHCAFEYKFVLWYPPNGEIAVPYVPTTAGEEVPITYAGDSEVLNEESEGGARRRSWRKWLFPPSPSRCPAPPGPSESIVWEGFGPDSNRKFCFDPFDVVVDVNELGDLECLYICRIAHFRDPRAGGVGEYDLTTRFYNSVKSECRMHYSTIFPRFFVGSCPRQLKHIRHLKEELKVTCVVNLQTEQDLCNNYPDPIASSRSAEAVSQLYDGSGLRYVWLPTADMCDSARKIAVANAAFLLLGLFQSGHSVYMHCNAGVGRSVAAACAFLCFAVGLDLRKVNFLICARRPVAYWDEKAMKYGIGDYQAKFGHCRVVGEEAEERQHA
For B2, where the note is “other: pH 5.5, 37 °C”, the Michaelis-Menten constant (Km) stood at 1000 ± 50 µM and the Vmax was 1.4 ± 0.02 nmol PO4/min.
